Ends that are not written are not given here. * marks the point of attachment. Biotin = O=C1N[C@H]2[C@H](CS[C@H]2CCCCC(=O)*)N1
Assays:
Akt = Akt (Homo sapiens, UniProt P31749); assay: in vitro time-course kinase assay with Akt and Aktide biosensor (MALDI/TOF/TOF-MS readout); format: biochemical; details: 15 nM kinase, 20 μM peptide, 100 μM ATP, 37° C., time points 0, 30, 60, 120 min; result after 2 hr
Procedure: FIG. 7. […] The abundance of the biosensor (labeled “Aktide”) and its phosphorylated version (labeled “phospho Aktide”) are shown over four different time points (0, 30, 60, 120 min) which represent the amount of time the peptide was incubated with the kinase.
The in vitro kinase assay was performed with Akt and Aktide biosensor (RRRRRSVDSHGGKbiotinGG (SEQ ID NO:11)). First, the kinase (15 nM final concentration) was pre-incubated in kinase reaction buffer (10 mM HEPES, 10 mM MgCl2, 0.125 ng/μL BSA, 100 μM adenosine triphosphate (ATP), pH 7.5) for 15 minutes. Then the substrate peptide, Aktide (20 μM final concentration), was added and the reaction was kept at 37° C. The reaction was monitored at different time points by removing 20 μL aliquots and quenching with 10 μL of 6 M urea at 0, 30, 60, and 120 minutes. The samples were then desalted with C18 zip tips according to the manufacturer's protocol and analyzed on an Applied Biosystems-Sciex 5800 MALDI/TOF/TOF-MS.

LKB1 = biological target: T1, LKB1 (Homo sapiens, UniProt Q15831); assay: in vitro kinase assay screen with LKB1 and candidate biosensor peptides (LC ESI-MS readout); format: biochemical; details: 15 nM kinase, 20 μM peptide, 100 μM ATP, 37° C., 3 hr reaction
T1 sequence (Q15831 1-433): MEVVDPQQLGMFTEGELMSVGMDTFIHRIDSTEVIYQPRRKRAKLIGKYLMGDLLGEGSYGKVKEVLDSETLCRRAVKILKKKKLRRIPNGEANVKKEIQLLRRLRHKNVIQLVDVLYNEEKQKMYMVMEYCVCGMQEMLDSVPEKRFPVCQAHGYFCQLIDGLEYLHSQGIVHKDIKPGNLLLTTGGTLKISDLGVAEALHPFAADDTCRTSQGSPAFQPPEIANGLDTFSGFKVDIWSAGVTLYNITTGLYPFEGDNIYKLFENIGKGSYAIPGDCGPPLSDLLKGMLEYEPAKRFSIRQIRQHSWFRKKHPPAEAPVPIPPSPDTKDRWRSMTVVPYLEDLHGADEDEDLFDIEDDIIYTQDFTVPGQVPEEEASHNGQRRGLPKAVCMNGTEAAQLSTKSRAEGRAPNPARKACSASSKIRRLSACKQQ
T1 sequence (Q7RTN6 1-431 partner): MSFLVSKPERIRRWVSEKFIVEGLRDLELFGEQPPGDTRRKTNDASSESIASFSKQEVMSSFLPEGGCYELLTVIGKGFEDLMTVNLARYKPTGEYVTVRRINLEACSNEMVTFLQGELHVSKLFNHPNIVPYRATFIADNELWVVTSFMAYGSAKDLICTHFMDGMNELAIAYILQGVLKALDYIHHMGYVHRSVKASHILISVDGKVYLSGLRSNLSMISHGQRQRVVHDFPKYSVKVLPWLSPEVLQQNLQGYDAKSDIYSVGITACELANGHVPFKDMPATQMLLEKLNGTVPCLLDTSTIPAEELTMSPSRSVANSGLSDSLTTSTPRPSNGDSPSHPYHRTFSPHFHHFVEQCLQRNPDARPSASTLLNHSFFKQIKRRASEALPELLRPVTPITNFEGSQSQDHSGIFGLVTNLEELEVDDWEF
T1 sequence (Q9Y376 1-341 partner): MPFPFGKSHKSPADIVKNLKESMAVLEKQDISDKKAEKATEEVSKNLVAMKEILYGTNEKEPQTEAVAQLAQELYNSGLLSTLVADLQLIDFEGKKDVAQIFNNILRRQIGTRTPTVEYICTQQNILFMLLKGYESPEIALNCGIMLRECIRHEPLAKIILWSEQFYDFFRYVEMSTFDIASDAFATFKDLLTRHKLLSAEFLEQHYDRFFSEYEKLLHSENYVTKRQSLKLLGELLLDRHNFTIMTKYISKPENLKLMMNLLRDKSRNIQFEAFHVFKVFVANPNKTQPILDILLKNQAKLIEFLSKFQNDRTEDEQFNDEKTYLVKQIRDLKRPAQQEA
Procedure: FIGS. 8A-B. FIG. 8A. Results from an initial kinase assay with LKB1 testing candidate biosensor peptide substrate WHLQTWCGYGGKbiotinGG (SEQ ID NO:12). The data shown is the abundance of the peptide and its phosphorylated version (SEQ ID NO:14) after incubation with the kinase for 3 hr. FIG. 8B. Zoomed in version of the spectrum showing relative abundance.
The in vitro kinase assay screen was performed with LKB1 and the candidate biosensor sequence (WHLQTWCGYGGKbiotinGG (SEQ ID NO:12)). First the kinase, (15 nM final concentration), was pre-incubated in kinase reaction buffer (10 mM HEPES, 10 mM MgCl2, 0.125 ng/μL BSA, 100 μM adenosine triphosphate (ATP), pH 7.5) for 15 minutes. Then the substrate peptide, (20 μM final concentration), was added and the reaction was kept at 37° C. The reaction was quenched with 6 M urea and then the sample was desalted with C18 zip tips according to the manufacturer's protocol and analyzed on an Agilent 1200 series LC and Agilent 6130 quadrupole ESI-MS.

Akt, sequence (P31749 whole entry): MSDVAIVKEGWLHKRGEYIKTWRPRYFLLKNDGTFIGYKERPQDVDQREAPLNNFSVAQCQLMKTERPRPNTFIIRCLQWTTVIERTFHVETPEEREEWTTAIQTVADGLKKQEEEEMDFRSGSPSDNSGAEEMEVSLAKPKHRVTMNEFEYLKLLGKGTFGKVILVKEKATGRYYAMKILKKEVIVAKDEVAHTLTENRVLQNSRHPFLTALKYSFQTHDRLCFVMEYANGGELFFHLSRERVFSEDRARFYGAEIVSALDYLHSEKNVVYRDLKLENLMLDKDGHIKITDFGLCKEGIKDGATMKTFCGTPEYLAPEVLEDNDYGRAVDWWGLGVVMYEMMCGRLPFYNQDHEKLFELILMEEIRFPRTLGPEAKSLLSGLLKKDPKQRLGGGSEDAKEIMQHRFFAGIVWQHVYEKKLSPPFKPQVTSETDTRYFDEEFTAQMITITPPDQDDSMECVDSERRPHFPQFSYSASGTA

Row | phosphorylation of the peptide substrate by LKB1 (LKB1) | Substance | phosphorylation of the peptide substrate by Akt (conversion to phosphorylated product) (Akt)
1 |  | RRRRRSVDSHGGKbiotinGG (RRRRRSVDSHGGK(Biotin)GG) [artificial Akt substrate peptide biosensor with C-terminal -GGKbiotinGG tag] | Nearly complete conversion to phosphorylated product
2 | partially phosphorylated | WHLQTWCGYGGKbiotinGG (WHLQTWCGYGGK(Biotin)GG) [candidate LKB1 biosensor peptide substrate with C-terminal -GGKbiotinGG tag] | 

— patent US10745439B2, “Kinase substrates and methods of use thereof” (REGENTS OF THE UNIVERSITY OF MINNESOTA, priority 2017, dated 2020)
